Experimental data as given in article PMC3298081 (Arteriosclerosis, Thrombosis, and Vascular Biology, 2012).

Target: thrombospondin-1 (human, UniProt P07996 19-1170)
Assay: ELISA

thrombospondin-1, sequence (P07996 19-1170): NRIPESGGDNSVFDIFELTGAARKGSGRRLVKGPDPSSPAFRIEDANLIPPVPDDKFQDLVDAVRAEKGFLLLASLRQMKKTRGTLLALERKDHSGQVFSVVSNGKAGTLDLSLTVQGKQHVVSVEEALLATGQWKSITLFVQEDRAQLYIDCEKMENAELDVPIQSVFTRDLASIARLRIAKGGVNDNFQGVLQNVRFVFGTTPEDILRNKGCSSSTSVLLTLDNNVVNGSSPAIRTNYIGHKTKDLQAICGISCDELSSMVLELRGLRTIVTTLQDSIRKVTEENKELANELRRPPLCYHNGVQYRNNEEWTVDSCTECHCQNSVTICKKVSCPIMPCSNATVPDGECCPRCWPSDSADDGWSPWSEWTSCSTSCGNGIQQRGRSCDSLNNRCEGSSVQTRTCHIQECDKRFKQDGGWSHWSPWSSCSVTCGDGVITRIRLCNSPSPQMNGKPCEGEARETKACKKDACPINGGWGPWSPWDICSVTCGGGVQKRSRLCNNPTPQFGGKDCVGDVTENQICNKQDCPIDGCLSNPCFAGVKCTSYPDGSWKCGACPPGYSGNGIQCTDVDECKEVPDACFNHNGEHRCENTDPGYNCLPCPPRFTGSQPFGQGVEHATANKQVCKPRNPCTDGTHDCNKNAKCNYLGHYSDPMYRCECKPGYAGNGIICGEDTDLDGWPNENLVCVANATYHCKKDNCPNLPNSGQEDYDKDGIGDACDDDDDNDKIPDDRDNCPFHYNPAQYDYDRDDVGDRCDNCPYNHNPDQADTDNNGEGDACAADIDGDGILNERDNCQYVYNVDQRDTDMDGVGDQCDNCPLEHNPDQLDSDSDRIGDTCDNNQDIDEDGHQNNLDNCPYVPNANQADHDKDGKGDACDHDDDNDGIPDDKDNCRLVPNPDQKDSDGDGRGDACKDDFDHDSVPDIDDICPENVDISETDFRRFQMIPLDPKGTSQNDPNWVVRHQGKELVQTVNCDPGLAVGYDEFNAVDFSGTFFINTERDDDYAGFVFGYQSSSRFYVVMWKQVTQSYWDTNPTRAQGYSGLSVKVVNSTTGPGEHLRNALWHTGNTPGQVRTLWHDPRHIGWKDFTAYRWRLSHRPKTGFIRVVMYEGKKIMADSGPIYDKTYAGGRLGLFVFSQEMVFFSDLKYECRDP

B1: recombinant thioredoxin/extended CD36 CLESH domain fusion protein (non-phosphorylated) (domain or fragment, human, UniProt P16671 81-120, looked up)
chain: SNIQVKQRGPYTYRVRFLAKENVTQDAEDNTVSFLQPNGA
B1: binds.
